Test results published in patent publication US20220411514A1, “ANTI-GAL3 ANTIBODIES AND METHODS OF USE FOR INSULIN RESISTANCE” (TrueBinding, Inc., priority 2021, published 2022).

Assays:
Human Gal3 peptides = target: T1, Human Gal3 peptides (Homo sapiens, UniProt P17931); test: Gal3 peptide binding ELISA (Example 8); conditions: antibody 5 μg/mL
T1 construct: purchased LifeTein custom order
Protocol: Gal3 peptide binding activity of additional exemplary anti-Gal3 antibodies was assessed with the same peptides as described in FIG. 18 (SEQ ID NOs: 3-26). Human Gal3 peptides (LifeTein, custom order) and human Gal3 proteins (R&D Systems, 8259-GA; TrueBinding, QCB200349) were diluted in PBS (Corning, 21-030-CM) to concentrations of at least 100 μg/mL (peptides) or 1 μg/mL (proteins), and added to the wells of several 96-well ELISA plates (Thermo Fisher, 44-2404-21). After incubating the plates at 4° C. overnight, the plates were washed three times with PBST (PBS with 0.05% Tween 20 [VWR, 0777]). The plates were then blocked for an hour with 2% BSA (EMD Millipore, 126609) in PBST at room temperature with gentle rocking. Thereafter, the 2% BSA in PBST was discarded and Gal3-binding antibodies (reformatted hIgG4 [S228P]) were diluted in 2% BSA in PBST to concentrations of 5 μg/mL and added to the wells. The plates were incubated for an hour at room temperature with gentle rocking and then washed three times with PBST. Afterwards, Peroxidase AffiniPure F(ab′)2 Fragment Goat Anti-Human IgG (H+L) polyclonal antibody (Jackson ImmunoResearch, 109-036-003), was diluted in 2% BSA in PBST (1:4000) and added to the wells. The plates were incubated for 1 hour at room temperature with gentle rocking and then washed three times with PBST. TMB substrate (Thermo Scientific, 34029) was then added to each well. The reaction was stopped with 1M HCl (JT Baker, 5620-02) and read using a plate reader (Molecular Devices) at absorbance of 450 nm.

human Gal3 = target: T2, human Gal3 (Homo sapiens, UniProt P17931); test: Epitope binning, sandwich format, SPR Carterra LSA (Example 8); assay type: binding
T2 construct: 6xHis (linker-spaced) (C); purchased AcroBio (Acro Biosystems) GA3-H5129
Protocol: The epitope binning assay was done in a sandwich format on the high-throughput SPR-based Carterra LSA unit (CarterraBio, Salt Lake City, Utah). First, the purified antibodies were diluted to 10 μg/ml concentration in 10 mM NaOAc (pH 5.0) and then were covalently coupled via amine group to HC200M chip activated by EDC and S-NHS to immobilize antibodies to different positions of a 384-spot array. One hundred thirty-eight binning cycles were run on the array of immobilized antibodies. In each cycle, first, human Gal3 (AcroBio GA3-H5129) was injected over the entire array to bind to different antibodies (primary antibody), followed by one antibody (secondary antibody) selected among the panel of 150 anti-GAL3 antibodies tested. At the end of each cycle, the array was regenerated by 10 mM Glycine (pH 2.0) to remove bound antigen and secondary antibody from the array. The data analysis was done using the Epitope software by CarterraBio.

[1] = test system: GLUT4 translocation in L6 GLUT4myc myoblasts; test: Insulin-stimulated GLUT4 translocation with Gal3 and anti-Gal3 antibody; assay type: cell-based, rat; conditions: 30 μg/mL Gal3 pre-incubated with 60 μg/mL antibody, 100 nM insulin
Protocol: Rat L6 GLUT4myc myoblasts (Kerafast #ESK202-FP) express a Myc-tagged GLUT4 that can be detected with an anti-Myc antibody. These cells were grown in a 48-well plate in MEM u growth media (Gibco, #12-571-063)+10% fetal bovine serum (FBS; Corning #35-016-CV) until 90-95% confluence was reached. Cells were then washed in PBS and serum starved for 2 hours in MEM u growth media without FBS. Thirty (30) μg/mL recombinant human Gal3 (TrueBinding QCB200347) was pre-incubated with 60 μg/mL anti-Gal3 antibodies for 30 minutes before being added to the serum-starved cells for 1 hour at 37° C. At the end of incubation, half of the cells were treated with 100 nM insulin (Sigma-Aldrich #I5523-50MG) for 20 minutes while the other half acted as basal controls. After 20 minutes, cells were washed quickly with ice cold PBS twice, then incubated with 4% paraformaldehyde (Boster Bio #AR1068) for 10 minutes on ice followed by 10 minutes at room temperature. The cells were washed three times with PBS, then blocked with 0.5 mL 5% goat serum (Vector Laboratories #101098-382) in PBS for 15 minutes. After the blocking agent was aspirated from the cells, 1 μg/ml anti-Myc polyclonal antibody (Sigma-Aldrich #C-3956) in 5% goat serum was added for 1 hour. […] Primary antibody was aspirated away, and then cells washed 5 times with PBS. Next, cells (including background controls) were incubated with 1:1000 goat anti rabbit antibody secondary antibody (Abcam #Ab97051) in 5% Goat serum for 30 minutes at room temperature. After washing, cells were incubated with 400 μL of TMB (Thermo Scientific #PI34029) for 5 minutes, then 200 μL of 1N HCL (Avantor Performance #JT5620-2) was added to stop the reaction. 100 μL of the sample was transferred to a 96 well plate with duplicates transferred for each condition. Samples were read at 450 nm on a SpectraMax plate reader. […] The fold changes were plotted on GraphPad Prism and presented as mean (SEM) of the technical replicates. Statistical significance was determined using unpaired T-tests comparing samples treated with Gal3 and insulin with all other conditions.

T2 sequence (P17931 whole entry): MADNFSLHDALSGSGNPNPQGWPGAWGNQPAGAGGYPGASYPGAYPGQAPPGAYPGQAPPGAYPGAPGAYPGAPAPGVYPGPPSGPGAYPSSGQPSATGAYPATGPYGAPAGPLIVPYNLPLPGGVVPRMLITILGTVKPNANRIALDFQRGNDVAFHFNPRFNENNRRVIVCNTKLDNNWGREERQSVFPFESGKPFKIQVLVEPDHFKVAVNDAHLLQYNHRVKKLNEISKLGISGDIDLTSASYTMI

epitope bin (mutual competitive binding for Gal3) (human Gal3)	binding to Gal3 peptide 17 (SEQ ID NO: 19) (Human Gal3 peptides)	binding to Gal3 peptide 13 (SEQ ID NO: 15) (Human Gal3 peptides)	Molecule	effect on Gal3 block of insulin-stimulated GLUT4 translocation [1]	also measured
CRD	–	–	847.28D1: anti-Gal3 antibody (antibody, V domains shown) VH: QVQLVETGPGLVAPSQSLSITCTVSGFSLTSYGVHWIRQSPGKGLEWLGTIWAGGSTDYNSPLMSRLSISKDNSKNQVFLKMNSLQIDDTAIYYCASPPSGYDYDVFASWGQGTLVTVSA VL: DIRMTQSPASLSASVGETVTITCRASGNIHNYLAWYHQKQGKSPQLLVYNVKTLADGVPSRFSGSGSGTQFSLKINSLQPEDFGTYYCQHFWSIFPTFGGGTKLEIK	–	binding to Gal3 peptide 6 (SEQ ID NO: 8) (Human Gal3 peptides): bound
CRD	bound	–	847.3B3: anti-Gal3 antibody (antibody, V domains shown) VH: QVQLKESGPGLVAPSQSLSITCTVSGFSLTSYGVHWIRQPPGKGLEWLGGIWAGGSTDYNSPLMSRLSITKDNSKSQVFLKMNSLQSDDTAMYYCASPPSGYDYDVFAYWGQGTLVTVSA VL: DILMTQSPASLSASVGETVTITCRASGNIHNYLAWYQQKQGKSPQLLVYSAKTLADGVPSRFSGSGSGTQFSLKIDSLQPEDFGTYYCQHFWSLFPTFGGGTKLEIK	–	–
CRD	bound	bound	847.13E2-mH0mL1: anti-Gal3 antibody (antibody, V domains shown) VH: EVQLQQSGPELVKPGASVKVSCKASGYSFTDYNMYWVMQSHGKSLEWIGYIDPYNDATSYSQKFTGKATLTVDKSSSTAFMHLNSLTSEDSAVYYCARWGRYEYYAMDYWGQGTSVTVSS VL: DIVMTQSPASLPVSLGQRATISCRASKSVTTSAYSYIHWYQQRPGQPPKLLIYLASNLESGVPARFSGSGSGTDFTLNIHPVEEEDAATYYCQHNRELPPTFGGGTKLEIN	–	–
CRD	bound	bound	847.13E2-mH0mL2: anti-Gal3 antibody (antibody, V domains shown) VH: EVQLQQSGPELVKPGASVKVSCKASGYSFTDYNMYWVMQSHGKSLEWIGYIDPYNDATSYSQKFTGKATLTVDKSSSTAFMHLNSLTSEDSAVYYCARWGRYEYYAMDYWGQGTSVTVSS VL: DIVLTQSPATLSVTPGDSVSFSCRASQIINNNLHWYQQKSHESPRLLIRYTSQSISGIPSRFSGSGSGTDFTLSINNVETEDFGMYFCQQTNSWPLTFGAGTKLELK	–	–
CRD	bound	bound	847.23F11: anti-Gal3 antibody (antibody, V domains shown) VH: QVQLQQSGAELVRPGASVKLSCKASGYTFTSSWMNWVKQRPGQGLDWIGMIDPSDSETHYNQMFKDKATLTVDKSSNTAYMQLSRLTSEDSAVYYCVNSNYESGYWGQGTTLTVSS VL: DILMTQSHKFMSTSVGDRVSITCKASQDVSSVVVWYQQKPGQSPKQLIYWASTRHTGVPDRFTGSGSGTDYTLTISSVQAEDLALYYCQQHYSTPYTFGGGTKLEIK	–	–
11	bound	–	849.1D2: anti-Gal3 antibody (antibody, V domains shown) VH: QVQLKESGPVLVAPSQSLSITCTVSGFSLSSYGVHWVRQPPGKGLEWLGVIWAGGSTDYDSALMSRLSISKDNSKSQVFLKMDSLQTDDTAMYYCAKPPYDYDGAWFAYWGQGTLVTVSA VL: DVVMTQTPKFLLVSAGDRVTITCKASQSVSSDVAWYQQKPGQSPKLLIYFASNRYTGVPDRFTGSGYGTDFTFTISTVQAEDLAVYFCQHNYISPFTFGGGTKLEIK	–	binding to Gal3 peptide 1 (SEQ ID NO: 3) (Human Gal3 peptides): bound
–	–	–	2D10-hVH4-HVL2: anti-Gal3 antibody, VH SEQ ID NO: 807, VL SEQ ID NO: 822 (antibody, V domains shown, VH-81 Peptide Sequence; VL-79 Peptide Sequence) VH: QVQLVQSGAEVKKPGASVKVSCKASGYTFTDYYINWVRQAPGQRLEWMGWIYPGSQDTKYNEKFQGRVTLTVDTSASTAYMELSSLRSEDTAVYFCANYFGSSGWFFDVWGQGTMVTVSS VL: DIVMTQSPLSLPVTPGEPASISCRSSKSLLHSDGITYLYWYLQKPGQSPQLLIYRMSNLASGVPDRFSGSGSGTDFTLKISRVEAEDVGVYYCAQMIEFPLTFGQGTKLEIK	reduce the ability of Gal3 to block GLUT4 translocation	–
–	–	–	2D10-hVH4-HVL4: anti-Gal3 antibody, VH SEQ ID NO: 809, VL SEQ ID NO: 824 (antibody, V domains shown, VH-83 Peptide Sequence; VL-81 Peptide Sequence) VH: QVQLVQSGAEVKKPGASVKVSCKASGYTFTDYYINWVRQAPGQRLEWMGWIYPGSQDTKYNEKFQGRVTLTVDTSASTAYMELSSLRSEDTAVYFCANYFGSSGWFFDVWGQGTMVTVSS VL: DIVMTQSPLSLPVTLGQPASISCRSSKSLLHSDGITYLYWYQQRPGQSPQLLIYRMSNLDSGVPDRFSGSGSGTDFTLKISRVEAEDVGVYYCAQMIEFPLTFGQGTKLEIK	reduce the ability of Gal3 to block GLUT4 translocation	–
–	–	–	2D10-hVH3-HVL1: anti-Gal3 antibody, VH SEQ ID NO: 810, VL SEQ ID NO: 825 (antibody, V domains shown, VH-84 Peptide Sequence; VL-82 Peptide Sequence) VH: QVQLVQSGAEVKKPGASVKVSCKASGYTFTDYYINWVRQAPGQRLEWMGWIYPGSQDTKYSQKFQGRVTITVDTSASTAYMELSSLRSEDTAVYYCANYFGSSGWFFDVWGQGTMVTVSS VL: DIVMTQSPLSLPVTPGEPASISCRSSKSLLHSDGITYLYWYLQKPGQSPQLLIYRMSNRASGVPDRFSGSGSGTDFTLKISRVEAEDVGVYYCAQMIEFPLTFGQGTKLEIK	reduce the ability of Gal3 to block GLUT4 translocation	–
–	–	–	2D10-hVH4-HVL3: anti-Gal3 antibody, VH SEQ ID NO: 808, VL SEQ ID NO: 823 (antibody, V domains shown, VH-82 Peptide Sequence; VL-80 Peptide Sequence) VH: QVQLVQSGAEVKKPGASVKVSCKASGYTFTDYYINWVRQAPGQRLEWMGWIYPGSQDTKYNEKFQGRVTLTVDTSASTAYMELSSLRSEDTAVYFCANYFGSSGWFFDVWGQGTMVTVSS VL: DVVMTQSPLSLPVTLGQPASISCRSSKSLLHSDGITYLYWYQQRPGQSPRLLIYRMSNRDSGVPDRFSGSGSGTDFTLKISRVEAEDVGVYYCAQMIEFPLTFGQGTKLEIK	reduce the ability of Gal3 to block GLUT4 translocation	–
